What was measured:
human TROP2-his protein [1] = target: T1, human TROP2-his protein (human, UniProt P09758 27-274); assay: competitive ELISA: soluble benchmark pre-mixed with biotin labeled human TROP2-his, added to plate coated with the benchmark (self-competition); unit taken from the x axis (ng/mL)
T1 construct: also called biotin labeled human TROP2-his protein
T1 sequence: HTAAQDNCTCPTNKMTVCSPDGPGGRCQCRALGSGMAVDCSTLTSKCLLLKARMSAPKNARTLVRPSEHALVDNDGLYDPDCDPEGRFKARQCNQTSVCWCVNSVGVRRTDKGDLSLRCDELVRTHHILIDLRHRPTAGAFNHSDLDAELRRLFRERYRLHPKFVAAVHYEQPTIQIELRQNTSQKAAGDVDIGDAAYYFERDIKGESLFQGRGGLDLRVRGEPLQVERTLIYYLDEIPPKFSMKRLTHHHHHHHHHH
Protocol: The anti-TROP2 antibodies were tested for their epitope binding in a competitive ELISA assay. Briefly, 100 μl of the benchmark at 1 μg/mL in PBS was coated on 96-well micro plates for 2 hours at 37° C. ELISA plates were washed once with wash buffer (PBS+0.05% v/v Tween-20, PBST) and then blocked with 200 μl blocking buffer (5% w/v non-fatty milk in PBST) for 2 hours at 37° C. While blocking, the anti-TROP2 antibodies of the disclosure or controls were diluted with biotin labeled human TROP2-his protein (SEQ ID NO: 16, 34 ng/mL in 2.5% w/v non-fatty milk in PBST), starting at 80 nM with a 5-fold serial dilution, and incubated at room temperature for 40 minutes. After plate washing 4 times, the antibody/TROP2-his protein mixtures were added to benchmark coated plates, 100 μl per well. After incubation at 37° C. for 40 minutes, plates were washed 4 times again using wash buffer. Then the plates were added and incubated with 100 μl Peroxidase Streptavidin (1:10000 dilution in PBST buffer, Jackson Immunoresearch, Cat #016-030-084) for 40 minutes at 37° C. Plates were washed again using wash buffer. […] The absorbance of each well was read on a microplate reader using dual wavelength mode with 450 nm for TMB and 630 nm as the reference wavelength, and the OD (450-630) values were plotted against antibody concentration. Data was analyzed using Graphpad Prism software and IC₅₀ values were reported.

human TROP2-his protein [2] = target: T1, human TROP2-his protein; assay: competitive ELISA: soluble benchmark pre-mixed with biotin labeled human TROP2-his, added to plate coated with the benchmark (self-competition); unit taken from the x axis (nM)
human TROP2-his protein [3] = target: T1, human TROP2-his protein; assay: competitive ELISA: antibody pre-mixed with biotin labeled human TROP2-his, added to plate coated with the benchmark (sacituzumab analog); unit taken from the x axis (nM)

B1: sacituzumab (benchmark, an analog of sacituzumab, in house made) (antibody, human IgG1, kappa, V domains shown)
VH: SVQLQQSGSELKKPGASVKVSCKASGYTFTNYGMNWVKQAPGQGLKWMGWINTYTGEPTYTDDFKGRFAFSLDTSVSTAYLQISSLKADDTAVYFCARGGFGSSYWYFDVWGQGSLVTVSS
VL: DIQLTQSPSSLSASVGDRVSITCKASQDVSIAVAWYQQKPGKAPKLLIYSASYRYTGVPDRFSGSGSGTDFTLTISSLQPEDFAVYYCQQHYITPLTFGAGTKVEIKR
notes: also called BM; BM1
IC50 (human TROP2-his protein [1]): 0.0543 µg/mL
IC50 (human TROP2-his protein [2]): 0.563 nM

B2: single domain antibody 01-9F (VHH)
VHH: QVQLVESGGGSVQAGGSLRLSCVVSGLPYERYCVAWFRQGPGKEREGVARILSDGTTSYSDSVKGRFTISKDNAKNTLYLQMNSLKSEDTATYYCAAEAFRPFTPSDGDCTTVLGIDYWGKGTPVTVSS
IC50 (human TROP2-his protein [3]): 0.247 nM
